Measured values as given in the supplement of paper PMC5998384.

What was measured:
HeLa Kyoto [1] = experiment: solubility change mitosis vs G1/S (difference of NP-40 vs SDS log2 ratios) (log2 ratio difference); higher = more soluble in mitosis
HeLa Kyoto [2] = experiment: melting temperature (median over replicates), in situ; higher = more thermally stable
HeLa Kyoto [3] = experiment: solubility in G1/S (NP-40 vs SDS abundance) (log2 ratio); higher = more soluble; conditions: cell cycle stage: G1/S
HeLa Kyoto [4] = experiment: thermal stability score vs G1/S (z-score of summed log2 fold changes over temperatures); higher = more thermally stable than in G1/S
[5] = cell cycle stage: early G1 (4.5 h after nocodazole release)
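Wherever melting temperature (median over replicates), in situ is given: HeLa Kyoto cells synchronized by double thymidine or nocodazole block, proteins quantified by TMT10plex mass spectrometry, three independent biological replicates.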
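Wherever solubility change mitosis vs G1/S (difference of NP-40 vs SDS log2 ratios) is given: synchronized HeLa Kyoto cells (double thymidine block for G1/S, nocodazole release for mitosis), protein amounts in NP-40 versus SDS lysates quantified by mass spectrometry, three biological replicates.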
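Wherever solubility in G1/S (NP-40 vs SDS abundance) is given: HeLa Kyoto cells arrested at G1/S by double thymidine block, proteins quantified by TMT10plex mass spectrometry in mild NP-40 versus SDS extracts, three biological replicates.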
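Wherever thermal stability score vs G1/S (z-score of summed log2 fold changes over temperatures) is given: synchronized HeLa Kyoto cells, proteins quantified by TMT10plex mass spectrometry, three biological replicates, mitosis taken 0.5 h after nocodazole release, G1/S directly after double thymidine block.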

SOX13, sequence (chain, as listed by the source): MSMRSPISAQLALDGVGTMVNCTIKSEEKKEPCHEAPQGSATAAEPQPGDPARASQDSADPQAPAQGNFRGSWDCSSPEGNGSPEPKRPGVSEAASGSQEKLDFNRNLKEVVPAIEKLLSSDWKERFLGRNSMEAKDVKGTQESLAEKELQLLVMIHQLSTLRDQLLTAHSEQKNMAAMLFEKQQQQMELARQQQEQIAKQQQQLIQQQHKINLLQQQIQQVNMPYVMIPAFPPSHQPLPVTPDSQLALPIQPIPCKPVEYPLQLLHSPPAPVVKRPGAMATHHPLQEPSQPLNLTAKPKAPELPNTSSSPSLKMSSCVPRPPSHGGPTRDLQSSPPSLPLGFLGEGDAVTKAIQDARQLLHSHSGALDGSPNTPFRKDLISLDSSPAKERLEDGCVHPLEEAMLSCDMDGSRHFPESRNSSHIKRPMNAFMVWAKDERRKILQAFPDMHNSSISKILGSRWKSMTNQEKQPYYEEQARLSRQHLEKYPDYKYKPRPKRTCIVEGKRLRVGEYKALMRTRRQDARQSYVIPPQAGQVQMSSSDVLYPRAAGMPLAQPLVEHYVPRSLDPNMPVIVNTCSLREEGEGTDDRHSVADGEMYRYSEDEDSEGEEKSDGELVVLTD

Substance | solubility change mitosis (log2) (HeLa Kyoto [1]) | melting temperature (HeLa Kyoto [2]; cell cycle stage: G1/S) | melting temperature (HeLa Kyoto [2]; cell cycle stage: mitosis) | solubility in G1/S (log2) (HeLa Kyoto [3]) | thermal stability score (HeLa Kyoto [4]; [5]) | thermal stability score (HeLa Kyoto [4]; cell cycle stage: mitosis)
MASTGSQASDIDEIFGFFNDGEPPTKKPRKLLPSLKTKKPRELVLVIGTGISAAVAPQVPALKSWKGLIQALLDAAIDFDLLEDEESKKFQKCLHEDKNLVHVAHDLIQKLSPRTSNVRSTFFKDCLYEVFDDLESKMEDSGKQLLQSVLHLMENGALVLTTNFDNLLELYAADQGKQLESLDLTDEKKVLEWAQEKRKLSVLHIHGVYTNPSGIVLHPAGYQNVLRNTEVMREIQKLYENKSFLFLGCGWTVDDTTFQALFLEAVKHKSDLEHFMLVRRGDVDEFKKLRENMLDKGIKVISYGDDYADLPEYFKRLTCEISTRGTSAGMVREGQLNGSSAAHSEIRGCST [FAM118B] | -0.123 | 49.3 °C | 50.5 °C | 0.418 |  | 
MAGQHLPVPRLEGVSREQFMQHLYPQRKPLVLEGIDLGPCTSKWTVDYLSQVGGKKEVKIHVAAVAQMDFISKNFVYRTLPFDQLVQRAAEEKHKEFFVSEDEKYYLRSLGEDPRKDVADIRKQFPLLKGDIKFPEFFKEEQFFSSVFRISSPGLQLWTHYDVMDNLLIQVTGKKRVVLFSPRDAQYLYLKGTKSEVLNIDNPDLAKYPLFSKARRYECSLEAGDVLFIPALWFHNVISEEFGVGVNIFWKHLPSECYDKTDTYGNKDPTAASRAAQILDRALKTLAELPEEYRDFYARRMVLHIQDKAYSKNSE [TYW5] | -0.114 | 53.8 °C | 53.8 °C | -0.0115 |  | 
MAVSGFTLGTCILLLHISYVANYPNGKVTQSCHGMIPEHGHSPQSVPVHDIYVSQMTFRPGDQIEVTLSGHPFKGFLLEARNAEDLNGPPIGSFTLIDSEVSQLLTCEDIQGSAVSHRSASKKTEIKVYWNAPSSAPNHTQFLVTVVEKYKIYWVKIPGPIISQPNAFPFTTPKATVVPLPTLPPVSHLTKPFSASDCGNKKFCIRSPLNCDPEKEASCVFLSFTRDDQSVMVEMSGPSKGYLSFALSHDQWMGDDDAYLCIHEDQTVYIQPSHLTGRSHPVMDSRDTLEDMAWRLADGVMQCSFRRNITLPGVKNRFDLNTSYYIFLADGAANDGRIYKHSQQPLITYEKYDVTDSPKNIGGSHSVLLLKVHGALMFVAWMTTVSIGVLVARFFKPVWSKAFLLGEAAWFQVHRMLMFTTTVLTCIAFVMPFIYRGGWSRHAGYHPYLGCIVMTLAVLQPLLAVFRPPLHDPRRQMFNWTHWSMGTAARIIAVAAMFLGMDLPGLNLPDSWKTYAMTGFVAWHVGTEVVLEVHAYRLSRKVEILDDDRIQILQSFTAVETEGHAFKKAVLAIYVCGNVTFLIIFLSAINHL [FRRS1] | 0.186 | 58.8 °C |  | 0.0918 |  | 
DLG5 | 0.289 |  | 47.5 °C | -0.385 |  | 
MSCGNEFVETLKKIGYPKADNLNGEDFDWLFEGVEDESFLKWFCGNVNEQNVLSERELEAFSILQKSGKPILEGAALDEALKTCKTSDLKTPRLDDKELEKLEDEVQTLLKLKNLKIQRRNKCQLMASVTSHKSLRLNAKEEEATKKLKQSQGILNAMITKISNELQALTDEVTQLMMFFRHSNLGQGTNPLVFLSQFSLEKYLSQEEQSTAALTLYTKKQFFQGIHEVVESSNEDNFQLLDIQTPSICDNQEILEERRLEMARLQLAYICAQHQLIHLKASNSSMKSSIKWAEESLHSLTSKAVDKENLDAKISSLTSEIMKLEKEVTQIKDRSLPAVVRENAQLLNMPVVKGDFDLQIAKQDYYTARQELVLNQLIKQKASFELLQLSYEIELRKHRDIYRQLENLVQELSQSNMMLYKQLEMLTDPSVSQQINPRNTIDTKDYSTHRLYQVLEGENKKKELFLTHGNLEEVAEKLKQNISLVQDQLAVSAQEHSFFLSKRNKDVDMLCDTLYQGGNQLLLSDQELTEQFHKVESQLNKLNHLLTDILADVKTKRKTLANNKLHQMEREFYVYFLKDEDYLKDIVENLETQSKIKAVSLED [HAUS3] | 0.224 | 48.6 °C | 49.8 °C | 0.0967 |  | 
MLGWIKRLIRMVFQQVGVSMQSVLWSRKPYGSSRSIVRKIGTNLSLIQCPRVQFQINSHATEWSPSHPGEDAVASFADVGWVAKEEGECSARLRTEVRSRPPLQDDLLFFEKAPSRQISLPDLSQEEPQLKTPALANEEALQKICALENELAALRAQIAKIVTQQEQQNLTAGDLDSTTFGTIPPHPPPPPPPLPPPALGLHQSTSAVDLIKERREKRANAGKTLVKNNPKKPEMPNMLEILKEMNSVKLRSVKRSEQDVKPKPVDATDPAALIAEALKKKFAYRYRSDSQDEVEKGIPKSESEATSERVLFGPHMLKPTGKMKALIENVSDS [MTFR1] | 0.0301 | 49.3 °C | 52.1 °C | 0.556 |  | 
MAALGRPFSGLPLSGGSDFLQPPQPAFPGRAFPPGADGAELAPRPGPRAVPSSPAGSAARGRVSVHCKKKHKREEEEDDDCPVRKKRITEAELCAGPNDWILCAHQDVEGHGVNPSVSGLSIPGILDVICEEMDQTTGEPQCEVARRKLQEIEDRIIDEDEEVEADRNVNHLPSLVLSDTMKTGLKREFDEVFTKKMIESMSRPSMELVLWKPLPELLSDKPKPSSNTKNYTGESQAKHVAAGTAFPQRTELFSEPRPTGMSLYNSLETATSTEEEMEL [CCDC117] | 0.183 | 51.6 °C | 53.2 °C | 0.515 |  | 
MGGLFWRSALRGLRCGPRAPGPSLLVRHGSGGPSWTRERTLVAVKPDGVQRRLVGDVIQRFERRGFTLVGMKMLQAPESVLAEHYQDLRRKPFYPALIRYMSSGPVVAMVWEGYNVVRASRAMIGHTDSAEAAPGTIRGDFSVHISRNVIHASDSVEGAQREIQLWFQSSELVSWADGGQHSSIHPA [NME4] | -0.189 | 54.9 °C | 54.5 °C | 0.0944 |  | 
MGEIEGTYRVLQTAGMRLGAQTPVGVSTLEPGQTLLPRMQEKHLHLRVKLLDNTMEIFDIEPKCDGQVLLTQVWKRLNLVECDYFGMEFQNTQSYWIWLEPMKPIIRQIRRPKNVVLRLAVKFFPPDPGQLQEEYTRYLFALQLKRDLLEERLTCADTTAALLTSHLLQSEIGDYDETLDREHLKVNEYLPGQQHCLEKILEFHQKHVGQTPAESDFQVLEIARKLEMYGIRFHMASDREGTKIQLAVSHMGVLVFQGTTKINTFNWSKVRKLSFKRKRFLIKLHPEVHGPYQDTLEFLLGSRDECKNFWKICVEYHTFFRLLDQPKPKAKAVFFSRGSSFRYSGRTQKQLVDYFKDSGMKRIPYERRHSKTHTSVRALTADLPKQSISFPEGLRTPASPSSANAFYSLSPSTLVPSGLPEFKDSSSSLTDPQVSYVKSPAAERRSGAVAGGPDTPSAQPLGPPALQPGPGLSTKSPQPSPSSRKSPLSLSPAFQVPLGPAEQGSSPLLSPVLSDAGGAGMDCEEPRHKRVPADEAYFIVKEILATERTYLKDLEVITVWFRSAVVKEDAMPATLMTLLFSNIDPIYEFHRGFLREVEQRLALWEGPSKAHTKGSHQRIGDILLRNMRQLKEFTSYFQRHDEVLTELEKATKRCKKLEAVYKEFELQKVCYLPLNTFLLKPIQRLLHYRLLLRRLCGHYSPGHHDYADCHDALKAITEVTTTLQHILIRLENLQKLTELQRDLVGIENLIAPGREFIREGCLHKLTKKGLQQRMFFLFSDMLLYTSKGVAGTSHFRIRGLLPLQGMLVEESDNEWSVPHCFTIYAAQKTIVVAASTRLEKEKWMLDLNSAIQAAKSGGDTAPALPGRTVCTRPPRSPNEVSLEQESEDDARGVRSSLEGHGQHRANTTMHVCWYRNTSVSRADHSAAVENQLSGYLLRKFKNSHGWQKLWVVFTNFCLFFYKTHQDDYPLASLPLLGYSVSIPREADGIHKDYVFKLQFKSHVYFFRAESKYTFERWMEVIQGASSSAGRAPSIVQDGPQPSSGLEGMVRGKEE [FARP2] | -0.0474 |  | 50 °C | -0.166 |  | 
MPTNFTVVPVEAHADGGGDETAERTEAPGTPEGPEPERPSPGDGNPRENSPFLNNVEVEQESFFEGKNMALFEEEMDSNPMVSSLLNKLANYTNLSQGVVEHEEDEESRRREAKAPRMGTFIGVYLPCLQNILGVILFLRLTWIVGVAGVLESFLIVAMCCTCTMLTAISMSAIATNGVVPAGGSYYMISRSLGPEFGGAVGLCFYLGTTFAGAMYILGTIEIFLTYISPGAAIFQAEAAGGEAAAMLHNMRVYGTCTLVLMALVVFVGVKYVNKLALVFLACVVLSILAIYAGVIKSAFDPPDIPVCLLGNRTLSRRSFDACVKAYGIHNNSATSALWGLFCNGSQPSAACDEYFIQNNVTEIQGIPGAASGVFLENLWSTYAHAGAFVEKKGVPSVPVAEESRASALPYVLTDIAASFTLLVGIYFPSVTGIMAGSNRSGDLKDAQKSIPTGTILAIVTTSFIYLSCIVLFGACIEGVVLRDKFGEALQGNLVIGMLAWPSPWVIVIGSFFSTCGAGLQSLTGAPRLLQAIARDGIVPFLQVFGHGKANGEPTWALLLTVLICETGILIASLDSVAPILSMFFLMCYLFVNLACAVQTLLRTPNWRPRFKFYHWTLSFLGMSLCLALMFICSWYYALSAMLIAGCIYKYIEYRGAEKEWGDGIRGLSLNAARYALLRVEHGPPHTKNWRPQVLVMLNLDAEQAVKHPRLLSFTSQLKAGKGLTIVGSVLEGTYLDKHMEAQRAEENIRSLMSTEKTKGFCQLVVSSSLRDGMSHLIQSAGLGGLKHNTVLMAWPASWKQEDNPFSWKNFVDTVRDTTAAHQALLVAKNVDSFPQNQERFGGGHIDVWWIVHDGGMLMLLPFLLRQHKVWRKCRMRIFTVAQVDDNSIQMKKDLQMFLYHLRISAEVEVVEMVENDISAFTYERTLMMEQRSQMLKQMQLSKNEQEREAQLIHDRNTASHTAAAARTQAPPTPDKVQMTWTREKLIAEKYRSRDTSLSGFKDLFSMKPDQSNVRRMHTAVKLNGVVLNKSQDAQLVLLNMPGPPKNRQGDENYMEFLEVLTEGLNRVLLVRGGGREVITIYS [SLC12A7] | -0.0793 |  |  | -0.103 | 0.109 | 0.0218
SOX13 | 0.0877 |  |  | 0.191 | 0.734 | 0.151
MAELDQLPDESSSAKALVSLKEGSLSNTWNEKYSSLQKTPVWKGRNTSSAVEMPFRNSKRSRLFSDEDDRQINTRSPKRNQRVAMVPQKFTATMSTPDKKASQKIGFRLRNLLKLPKAHKWCIYEWFYSNIDKPLFEGDNDFCVCLKESFPNLKTRKLTRVEWGKIRRLMGKPRRCSSAFFEEERSALKQKRQKIRLLQQRKVADVSQFKDLPDEIPLPLVIGTKVTARLRGVHDGLFTGQIDAVDTLNATYRVTFDRTGLGTHTIPDYEVLSNEPHETMPIAAFGQKQRPSRFFMTPPRLHYTPPLQSPIIDNDPLLGQSPWRSKISGSDTETLGGFPVEFLIQVTRLSKILMIKKEHIKKLREMNTEAEKLKSYSMPISIEFQRRYATIVLELEQLNKDLNKVLHKVQQYCYELAPDQGLQPADQPTDMRRRCEEEAQEIVRHANSSTGQPCVENENLTDLISRLTAILLQIKCLAEGGDLNSFEFKSLTDSLNDIKSTIDASNISCFQNNVEIHVAHIQSGLSQMGNLHAFAANNTNRD [LIN9] | 0.143 |  |  | 0.183 | 2.27 | 3.4
MEEGKMDENEWGYHGEGNKSLVVAHAQRCVVLRFLKFPPNRKKTSEEIFQHLQNIVDFGKNVMKEFLGENYVHYGEVVQLPLEFVKQLCLKIQSERPESRCDKDLDTLSGYAMCLPNLTRLQTYRFAEHRPILCVEIKPKCGFIPFSSDVTHEMKHKVCRYCMHQHLKVATGKWKQISKYCPLDLYSGNKQRMHFALKSLLQEAQNNLKIFKNGELIYGCKDARSPVADWSELAHHLKPFFFPSNGLASGPHCTRAVIRELVHVITRVLLSGSDKGRAGTLSPGLGPQGPRVCEASPFSRSLRCQGKNTPERSGLPKGCLLYKTLQVQMLDLLDIEGLYPLYNRVERYLEEFPEERKTLQIDGPYDEAFYQKLLDLSTEDDGTVAFALTKVQQYRVAMTAKDCSIMIALSPCLQDASSDQRPVVPSSRSRFAFSVSVLDLDLKPYESIPHQYKLDGKIVNYYSKTVRAKDNAVMSTRFKESEDCTLVLHKV [IPPK] | -0.0236 |  |  | -0.275 | 0.519 | 1.21
